Source: patent US20020164657A1, “Assays for assessing A beta-Tau aggregation” (priority 2001, published 2002)

Biological target: T1, tau phosphorylated by TPK II (Homo sapiens, UniProt P10636)
T1 construct: Human recombinant tau 1-383 isoform; made in house; host or cells: tau and p20: E. coli; cdk5: baculovirus-infected insect cells
Test: Gel-shift assay of TPK II tau phosphorylation
Format: biochemical
Conditions: 3 μM tau, 50 nM TPK II, 60 μM Aβ peptide, 4 hours, FIG. 8
Protocol: Gel-shift assays were done by incubating 3 μM tau with 50 nM TPK II and/or 167 units/ml TPK I for the indicated time at 37° C. in a total volume of 20 μl containing 40 mM Tris, pH 7.5, 10 mM MgCl2, 1 mM DTT, and 1 mM ATP. Aβ peptides were added at 10× concentrations to the assay to achieve the final concentration indicated. Following incubation the samples were electrophoresed on 12% SDS-PAGE and stained with Coomassie Blue R-250.

T1 sequence (P10636 1-383 isoform P10636-6): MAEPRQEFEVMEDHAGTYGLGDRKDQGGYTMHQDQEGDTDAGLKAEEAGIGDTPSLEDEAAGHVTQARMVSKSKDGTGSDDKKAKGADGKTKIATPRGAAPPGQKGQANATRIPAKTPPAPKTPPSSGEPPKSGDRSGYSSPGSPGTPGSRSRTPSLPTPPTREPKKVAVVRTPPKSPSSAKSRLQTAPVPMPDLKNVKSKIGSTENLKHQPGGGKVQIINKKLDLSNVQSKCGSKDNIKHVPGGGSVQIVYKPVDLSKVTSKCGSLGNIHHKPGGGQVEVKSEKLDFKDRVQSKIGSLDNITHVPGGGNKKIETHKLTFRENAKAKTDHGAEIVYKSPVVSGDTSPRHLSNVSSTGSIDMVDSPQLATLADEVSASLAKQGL

**Q.** How did the “effect on tau gel shift” value turn out when “Aβ 25-35: beta-amyloid peptide fragment 25-35, obtained from Bachem; control peptide (GSNKGAIIGLM)” was run?
**A.** no effect

**Q.** How did the “effect on tau gel shift” value turn out when “Aβ 1-40: beta-amyloid peptide, residues 1-40, obtained from Bachem; control peptide” was run?
**A.** no effect
